Laboratory results from patent US6255062A, “β-type DNA polymerases” (priority 1994, dated 2001).

Tests used:
[1] = biological target: T1, yeast β-type DNA polymerase (Saccharomyces cerevisiae, UniProt P25615); assay: Inhibitor sensitivity of DNA polymerase activity in 12CA5 immunoprecipitates; assay type: biochemical; conditions: for Polβ Activity (1): experiment 1; for Polβ Activity (2): experiment 2
T1 construct: made in house; host or cells: Saccharomyces cerevisiae BJ5459 carrying pGAL18HAβ, galactose induced; 12CA5 immunoprecipitate on protein A beads

[2] = tested on: DNA polymerases α, δ and ε; conditions: cited from earlier work
[3] = tested on: activated DNA or poly dA-oligo dT primer-template; assay: DNA polymerase activity in 12CA5 immunoprecipitates; assay type: biochemical; conditions: for Polβ Activity (1): experiment 1; for Polβ Activity (2): experiment 2
[4] = tested on: dA-dT and rA-dT primer-templates; assay: rNTP incorporation and reverse transcriptase activities of immunoprecipitated polymerase; assay type: biochemical
[5] = tested on: poly dT labeled at the 3'-end with terminal transferase; assay: 3' exonuclease activity; assay type: biochemical; conditions: data not shown
[6] = primer-template DNA, Aphidicolin (30 μg/ml), compare dCTP (10 mM) control
[7] = dA-dT (20:1), dTTP (10 mM)/ddTTP (10 mM)

Molecule: C[C@@]1(CO)[C@H](O)CC[C@@]2(C)[C@H]1CC[C@H]1C[C@@H]3C[C@@]12CC[C@]3(O)CO [Aphidicolin, aphidicolin]
- sensitivity of yeast β-type DNA polymerase to aphidicolin ([1]; 30 μg/ml): resistant
- Polβ Activity (1) [1, 6]: 162
- Polβ Activity (2) [1, 6]: 78
- inhibition of DNA polymerases α, δ and ε ([2]; aphidicolin 30 μg/ml): completely inhibits

Molecule: CCN1C(=O)C=CC1=O [NEM, N-ethylmaleimide]
- sensitivity of yeast β-type DNA polymerase to N-ethylmaleimide ([1]; 10 mM): sensitive
- Polβ Activity (1) ([1]; primer-template DNA, NEM (10 mM)): 8

Molecule: Cc1cn([C@H]2CC[C@@H](COP(=O)(O)OP(=O)(O)OP(=O)(O)O)O2)c(=O)[nH]c1=O [ddTTP, dideoxythymidine triphosphate]
- Polβ Activity (1) [1, 7]: 11
- Polβ Activity (2) [1, 7]: 6
- effect of ddTTP on yeast β-type DNA polymerase ([1]; levels used in Table 2): inhibited
- inhibition of DNA polymerase α, δ and ε ([2]; ddTTP at the levels used here): does not inhibit

B1: HA polβ: β-type DNA polymerase from S. cerevisiae (POL4, SEQ ID NO:2) tagged at NH2 terminus with influenza hemagglutinin epitope (protein)
chain: MSLKGKFFAFLPNPNTSSNKFFKSILEKKGATIVSSIQNCLQSSRKEVIILIEDSFVDSDMHLTQKDIFQREAGLNDVDEFLGKIEQSGIQCVKTSCITKWVQNDKFAFQKDDLIKFQPSIIVISDNADDGQSSTDKESEISTDVESERNDDSNNKDMIQASKPLKRLLQEDKGRASLVTDKTKYKNNELIIGALKRLTKKYEIEGEKFRARSYRLAKQSMENCDFNVRSGEEAHTKLRNIGPSIAKKIQVILDTGVLPGLNDSVGLEDKLKYFKNCYGIGSEIAKRWNLLNFESFCVAAKKDPEEFVSDWTILFGWSYYDDWLCKMSRNECFTHLKKVQKALRGIDPECQVELQGSYNRGYSKCGDIDLLFFKPFCNDTTELAKIMETLCIKLYKDGYIHCFLQLTPNLEKLFLKRIVERFRTAKIVGYGERKRWYSSEIIKKFFMGVKFSPRELEELKEMKNDEGTLLIEEEEEEETKLNPIDQYMSLNAKDGNYCRRLDFFCCKWDELGAGRIHYTGSKEYNRWIRILAAQKGFKLTQHGLFRNNILLESFNERRIFELLNLKYAEPEHRNIEWEKKTA
modifications: N-terminal HA epitope tag
- DNA polymerase activity relative to controls [3]: 10 fold
- synthesis on the poly dA template alone (primer requirement) [3]: No synthesis was observed
- Polβ Activity (1) ([3]; […], Complete): 101
- Polβ Activity (1) ([3]; […], dCTP (10 mM)): 212
- Polβ Activity (2) ([3]; […], dCTP (10 mM)): 106
- Polβ Activity (1) ([3]; dA-dT (10:1), Complete): 105
- Polβ Activity (2) ([3]; dA-dT (10:1), Complete): 244
- Polβ Activity (1) ([3]; dA-dT (20:1), Complete): 293
- Polβ Activity (2) ([3]; dA-dT (20:1), Complete): 411
- Polβ Activity (1) ([3]; dA-dT (20:1), dTTP (10 mM)): 95
- Polβ Activity (2) ([3]; dA-dT (20:1), dTTP (10 mM)): 102
- processivity [4]: processivity is low
- Activity ([4]; dA-dT, 3H NTP T, Mg, Experiment 1): 480 pmol
- Activity ([4]; dA-dT, 3H NTP T, Mn, Experiment 1): 769 pmol
- Activity ([4]; dA-dT, 3H NTP U, Mg, Experiment 1): 110 pmol
- Activity ([4]; dA-dT, 3H NTP U, Mg, Experiment 2): 187 pmol
- Activity ([4]; dA-dT, 3H NTP U, Mn, Experiment 1): 202 pmol
- Activity ([4]; dA-dT, 3H NTP U, Mn, Experiment 2): 209 pmol
- reverse transcriptase activity ([4]; in the presence of either Mg++ or Mn++): significant reverse transcriptase activity
- Activity ([4]; rA-dT, 3H NTP T, Mg, Experiment 1): 65 pmol
- Activity ([4]; rA-dT, 3H NTP T, Mg, Experiment 2): 81 pmol
- Activity ([4]; rA-dT, 3H NTP T, Mn, Experiment 1): 191 pmol
- Activity ([4]; rA-dT, 3H NTP T, Mn, Experiment 2): 59 pmol
- Activity ([4]; rA-dT, 3H NTP U, Mg, Experiment 2): 32 pmol
- Activity ([4]; rA-dT, 3H NTP U, Mn, Experiment 2): 55 pmol
- 3' exonuclease activity [5]: no 3' exonuclease activity
